Results on 13 molecules are retold here after patent publication CN116554322A (HEJING MEDICAL TECH SHANGHAI CO LTD, dated 2023).

T1: IL-18Rβ on KG-1 cells and human PBMC (human, UniProt O95256 20-599)
T1 sequence (looked up): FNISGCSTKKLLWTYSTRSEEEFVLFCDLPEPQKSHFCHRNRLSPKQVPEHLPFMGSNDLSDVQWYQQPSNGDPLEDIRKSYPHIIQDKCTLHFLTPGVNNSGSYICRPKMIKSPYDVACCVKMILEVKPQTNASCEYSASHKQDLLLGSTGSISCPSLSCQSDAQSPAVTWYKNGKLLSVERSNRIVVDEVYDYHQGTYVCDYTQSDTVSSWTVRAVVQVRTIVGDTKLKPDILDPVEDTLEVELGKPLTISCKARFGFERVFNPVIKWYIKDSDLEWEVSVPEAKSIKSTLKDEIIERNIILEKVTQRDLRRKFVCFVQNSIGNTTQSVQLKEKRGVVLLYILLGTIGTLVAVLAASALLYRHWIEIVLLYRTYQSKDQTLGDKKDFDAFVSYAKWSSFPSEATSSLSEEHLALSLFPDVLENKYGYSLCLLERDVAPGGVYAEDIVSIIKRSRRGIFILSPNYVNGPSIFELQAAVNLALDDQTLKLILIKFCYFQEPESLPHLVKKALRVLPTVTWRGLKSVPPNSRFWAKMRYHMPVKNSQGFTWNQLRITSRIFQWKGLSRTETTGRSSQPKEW

T2: 人IL-18Rβ蛋白 (IL-18Rβ antigen) (human)
T2 chain: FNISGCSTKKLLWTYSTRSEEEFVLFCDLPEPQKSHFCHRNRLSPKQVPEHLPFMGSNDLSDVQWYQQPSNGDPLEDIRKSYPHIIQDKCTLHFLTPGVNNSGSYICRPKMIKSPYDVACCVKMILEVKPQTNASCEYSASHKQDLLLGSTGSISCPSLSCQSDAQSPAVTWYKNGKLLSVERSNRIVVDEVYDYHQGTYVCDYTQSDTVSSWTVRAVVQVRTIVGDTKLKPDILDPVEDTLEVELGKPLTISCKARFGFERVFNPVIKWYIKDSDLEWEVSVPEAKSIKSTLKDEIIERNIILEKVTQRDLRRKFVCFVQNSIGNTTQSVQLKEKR

T3: 人IL-18Rβ蛋白 (IL-18Rβ antigen) (human)
T3 sequence (O95256 whole entry, species assumed, looked up): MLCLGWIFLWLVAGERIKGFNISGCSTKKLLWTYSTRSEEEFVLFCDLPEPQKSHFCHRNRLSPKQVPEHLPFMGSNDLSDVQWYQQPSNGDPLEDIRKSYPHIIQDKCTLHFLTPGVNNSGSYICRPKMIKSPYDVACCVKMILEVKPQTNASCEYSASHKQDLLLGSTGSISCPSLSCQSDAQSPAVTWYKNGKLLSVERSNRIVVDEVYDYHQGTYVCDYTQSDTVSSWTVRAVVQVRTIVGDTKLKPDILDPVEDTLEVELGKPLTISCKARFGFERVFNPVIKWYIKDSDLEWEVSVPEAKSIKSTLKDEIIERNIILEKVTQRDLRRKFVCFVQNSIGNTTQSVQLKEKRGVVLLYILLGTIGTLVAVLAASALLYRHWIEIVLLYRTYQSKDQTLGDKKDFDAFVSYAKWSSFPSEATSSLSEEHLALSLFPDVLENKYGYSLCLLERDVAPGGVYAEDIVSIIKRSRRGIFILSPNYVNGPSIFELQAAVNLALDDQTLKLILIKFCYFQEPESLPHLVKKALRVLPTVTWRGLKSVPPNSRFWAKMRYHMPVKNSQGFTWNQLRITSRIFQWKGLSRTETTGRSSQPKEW

B1: A039 full-length IgG (antibody, V domains shown)
VH: EVQLVESGGGLVQPGGSLRLSCAASGINLYYSSMHWVRQAPGKGLEWVASIYSSNGRTYYADSVKGRFTISADTSKNTAYLQMNSLRAEDTAVYYCARSSFSHGYGWYGLDYWGQGTLVTVSS
VL: DIQMTQSPSSLSASVGDRVTITCRASQSVSSAVDWYQQKPGKAPKLLIYSASSLYSGVPSRFSGSRSGTDFTLTISSLQPEDFATYYCQQYGYHDAGLITFGQGTKVEIK
B2: A037 full-length IgG (antibody, V domains shown)
VH: B1 VH with I27L
VL: B1 VL with S31F
B3: A035 full-length IgG (antibody, V domains shown)
VH: B1 VH with S99A
VL: B1 VL with S31F, D34E
B4: C056-WT full-length antibody (parental antibody WT) (antibody, V domains shown)
VH: B1 VH with I27F
VL: B1 VL with D34A
B5: A035 Fab clone (Fab, V domains shown)
VH: B1 VH with S99A
VL: B1 VL with S31F, D34E
notes: Mutations against C056-WT: VL-S31F/VL-A34E/VH-F27I/VH-S99A
B6: A037 Fab clone (Fab, V domains shown)
VH: B1 VH with I27L
VL: B1 VL with S31F
notes: Mutations against C056-WT: VL-S31F/VL-A34D/VH-F27L
B7: A039 Fab clone (Fab, V domains shown)
VH: B1 VH
VL: B1 VL
notes: Mutations against C056-WT: VL-A34D/VH-F27I
B8: A038 Fab clone (Fab, V domains shown)
VH: B1 VH
VL: B1 VL with D34E
notes: Mutations against C056-WT: VL-A34E/VH-F27I
B9: A042 Fab clone (Fab, V domains shown)
VH: B1 VH with I27L, S99A
VL: B1 VL with D34E
B10: A036 Fab clone (Fab, V domains shown)
VH: B1 VH with S99A
VL: B1 VL
B11: A040 Fab clone (Fab, V domains shown)
VH: B1 VH with I27L
VL: B1 VL with D34E
B12: A041 Fab clone (Fab, V domains shown)
VH: B1 VH with I27V, S99A
VL: B1 VL with S31F
B13: C056-WT Fab (wild-type anti-IL-18Rβ antibody) (Fab, V domains shown)
VH: B1 VH with I27F
VL: B1 VL with D34A

Residue numbers refer to the chain shown, from its start. Numbers in names are those of the source.

The term Kd denotes a measure of binding affinity in units of concentration. A high value points to lower affinity. The term koff denotes a measure of how fast the partners let go of each other. A higher koff goes with fast dissociation. For orientation: kon means the second-order rate constant of association. Read a low kon as slow association.

One test deals with T1, IL-18Rβ on KG-1 cells and human PBMC. Description: cell-based or functional assay.
Turning to B1, the “IC50(nM), inhibition of IL-18-stimulated IFN-γ release in KG-1 cells” value (“IC50(nM), inhibition” below) was 0.59 nM and the “potency relative to WT antibody, KG-1 IFN-γ assay” value is around 20 fold.
B2: the “IC50(nM), inhibition” value worked out at 0.27 nM and the “potency relative to WT antibody, KG-1 IFN-γ assay” value was around 20 fold.
The matching figures for B3: 0.26 nM and around 20 fold.
In the case of B4, the “IC50(nM), inhibition” value amounted to 8.14 nM.

A further test deals with T2, 人IL-18Rβ蛋白 (IL-18Rβ antigen). Description: SPR (Biacore 8K), secreted Fab captured on SASA sensor, antigen injected, 1:1 fit. For orientation: Surface plasmon resonance follows binding to a sensor surface in real time, without labels.
Regarding B5, the dissociation constant (Kd) is 0.224 nM, the koff was 3.19e-05 s⁻¹ and the kon worked out at 143000 M⁻¹ s⁻¹.
On to B6, for which the Kd worked out at 0.00847 nM, the koff was found to be 1e-06 s⁻¹ and the kon was 118000 M⁻¹ s⁻¹.
On to B7, for which the Kd was 0.26 nM, the koff is 3e-05 s⁻¹ and the kon came to 115000 M⁻¹ s⁻¹.
For B8, the Kd was determined as 0.725 nM, the koff amounted to 5.67e-05 s⁻¹ and the kon amounted to 78200 M⁻¹ s⁻¹.
In the case of B9, binding was characterised by a dissociation constant (Kd) of 1.34 nM, the koff turned out to be 0.000106 s⁻¹ and the kon was 79000 M⁻¹ s⁻¹.
Consider B10, for which the Kd is 0.648 nM, the koff was found to be 6.91e-05 s⁻¹ and the kon is 107000 M⁻¹ s⁻¹.
Regarding B11, the affinity, expressed as Kd, was 1.04 nM; the koff was found to be 8e-05 s⁻¹; the kon was determined as 77000 M⁻¹ s⁻¹.
The matching figures for B12: 0.415 nM, 6.35e-05 s⁻¹ and 153000 M⁻¹ s⁻¹.

Another test shares this target. Description: SPR (Biacore 8K), Fab captured; ratio of kd of C056-WT to kd of the clone.
Take B5: the “比值(kd)” value is 37.3.
Same read-out and setting: the value for B6 was 1190; that for B7 was 39.7; that for B8 was 21.
For the molecule B9, the “比值(kd)” value was determined as 11.2.
Turning to B10, the “比值(kd)” value amounted to 17.2.
Consider B11, for which the “比值(kd)” value amounted to 14.9.
On to B12, for which the “比值(kd)” value came out at 18.7.

For another test, the target named is T3, 人IL-18Rβ蛋白 (IL-18Rβ antigen) (human). Description: SPR (Biacore 8K), antibody captured on protein A chip, human IL-18Rβ 6.25-400 nM injected, 25°C.
Molecule B4 showed a Kd of 15.8 nM.

The target is the same in the next test. Description: SPR (Biacore 8K), secreted Fab captured on SASA sensor, antigen injected, 1:1 fit.
B13 yielded a Kd of 17.8 nM, a koff of 0.00119 s⁻¹ and a kon of 66600 M⁻¹ s⁻¹.

A further test shares this target. Briefly: SPR (Biacore 8K), Fab captured; ratio of kd, the reference itself.
For B13, the 比值(kd) came to 1.
